Experiment [1] deals with reaction centre-light harvesting 1 (RC-LH1) core complex, monomer, from Rba. sphaeroides strain DX13 (Rhodobacter sphaeroides 2.4.1) (UniProt P0C0Y8).
Experiment [2] shares this target. The source holds these as a separate data set.

Regarding “plastocyanin (Pc) of Synechocystis sp. PCC 6803, C-terminally StrepII-tagged (from UniProt P21697 29-126) (natural protein)”, in experiment [1], the K M of redox carrier oxidation by RC-LH1, steady-state turnover (0.125 µM RC-LH1, 50 µM UQ-2, 50 mM Tris-HCl pH 7.5, 100 mM NaCl, 0.03% β-DDM, 25°C) came to 209 µM; the Pc oxidation rate by RC-LH1 against NaCl (0-800 mM): optimum [NaCl] is 700 mM; the V max of redox carrier oxidation by RC-LH1, steady-state turnover (0.125 µM RC-LH1, 50 µM UQ-2, 50 mM Tris-HCl pH 7.5, 100 mM NaCl, 0.03% β-DDM, 25°C) was 7.92 e^−/RC/s.

In experiment [1], “isocytochrome c 2 (iso c 2) of Rba. sphaeroides (natural protein)” registered a K M of redox carrier oxidation by RC-LH1, steady-state turnover (0.125 µM RC-LH1, 50 µM UQ-2, 50 mM Tris-HCl pH 7.5, 100 mM NaCl, 0.03% β-DDM, 25°C) of 5.88 µM and a V max of redox carrier oxidation by RC-LH1, steady-state turnover (0.125 µM RC-LH1, 50 µM UQ-2, 50 mM Tris-HCl pH 7.5, 100 mM NaCl, 0.03% β-DDM, 25°C) of 230 e^−/RC/s. Besides, in experiment [2], the iso c 2 oxidation rate by RC-LH1 against NaCl (series up to 500 mM; optimum 50 mM in Table 1): activity left at 500 mM NaCl, percent of the maximum (% of maximum activity) stood at 20.

In experiment [1], “cytochrome c 2 (cyt c 2) of Rba. sphaeroides (from UniProt P0C0X8 1-124) (natural protein)” registered a K M of redox carrier oxidation by RC-LH1, steady-state turnover (0.125 µM RC-LH1, 50 µM UQ-2, 50 mM Tris-HCl pH 7.5, 100 mM NaCl, 0.03% β-DDM, 25°C) of 6.8 µM and a V max of redox carrier oxidation by RC-LH1, steady-state turnover (0.125 µM RC-LH1, 50 µM UQ-2, 50 mM Tris-HCl pH 7.5, 100 mM NaCl, 0.03% β-DDM, 25°C) of 293 e^−/RC/s. This substance also gave a cyt c 2 oxidation rate by RC-LH1 against NaCl (series up to 500 mM; optimum 100 mM in Table 1): activity left at 500 mM NaCl, percent of the maximum (% of maximum activity) in experiment [2] of 40.

In experiment [1], “cytochrome c 6 (cyt c 6) of Synechocystis sp. PCC 6803 (from UniProt P46445 36-120) (natural protein)” displayed a K M of redox carrier oxidation by RC-LH1, steady-state turnover (0.125 µM RC-LH1, 50 µM UQ-2, 50 mM Tris-HCl pH 7.5, 100 mM NaCl, 0.03% β-DDM, 25°C) of 66.3 µM; a V max of redox carrier oxidation by RC-LH1, steady-state turnover (0.125 µM RC-LH1, 50 µM UQ-2, 50 mM Tris-HCl pH 7.5, 100 mM NaCl, 0.03% β-DDM, 25°C) of 37.8 e^−/RC/s; a cyt c 6 oxidation rate by RC-LH1 against NaCl (0-800 mM): optimum [NaCl] of 700 mM.

On to “cytochrome c (cyt c) from horse heart mitochondria (from UniProt P00004 1-105) (natural protein)”, for which the cyt c oxidation rate by RC-LH1 against NaCl (series up to 500 mM; observed optimum 50 mM): activity lost at 500 mM NaCl (% of activity lost) in experiment [2] is 90.

These data come from article PMC12493188.
